Source: patent publication WO2014208760A1 (dated 2014)
Each block holds one binder with its values, some of them ahead of it.

Key:
[1] = target: T1, 67LR 161-170 peptide; experiment: ELISA of hybridoma culture supernatant on coated 67LR 161-170 peptide
T1 construct: Synthetic peptide coated on the ELISA plate at 10 ug/mL; also called ESM peptide; EGCG sensing motif (ESM)
T1 peptide: IPCNNKGAHS

[2] = target: T2, Control peptide; experiment: ELISA, peptide coated at 10 ug/mL, done as for ESM-8
T2 construct: Coated on the ELISA plate at 10 ug/mL
T2 peptide: MNAANVGWNGSTFA

[3] = target: T2, Control peptide; experiment: ELISA, peptide coated at 10 ug/mL, HRP anti-mouse IgG, absorbance at 405 nm
[4] = target: 67 kDa laminin receptor protein (human, UniProt P08865 2-295); experiment: cell-based or functional assay

binding result [1]: binds | binding result [2]: no binding
B1: ESM-16 antibody (ESM-16 monoclonal antibody) (antibody, V domains shown)
VH: EVMLVESGGGLVKPGGSLKLSCAASGFTFSSYAMSWVRQTPEKRLEWVATISSGGSYTYYPDSVKGRFTISRDNAKNTLYLQMSSLRSEDTAMYYCARNWDLDYWGQGTTLTVSS
VL: DIVMTQSPATLSVTPGDRVSLSCRASQSISDYLHWYQQKSHESPRLLIKYASQSISGIPSRFSGSGSGSDFTLSINSVEPEDVGVYYCQNGHSFPYTFGGGTKLEIK
notes: Mouse hybridoma antibody; in flow cytometry it was detected with goat anti-mouse IgM and compared with Isotype Control mIgM, which points to IgM; also called monoclonal antibody ESM-16; EMS-16 antibody

binding result [3]: no binding | binding result [1]: binds | acidic sphingomyelinase activity in HL60 cells (TLC of BODIPY-C12-sphingomyelin), relative to Control mIgG [4]: ~3 times
B2: ESM-8 antibody (ESM-8 monoclonal antibody) (antibody, V domains shown)
VH: QVQLKQSGPGLVQPSQSLSITCTVSGFSLTTYGVHWVRQSPGKGLEWLGVIWSGGNTDYNAAFMSRLSISKDNSKSQVFFKMNSLRTTDTAIYYCARNSLLLPFDVWGAGTTVTVSS
VL: DVVMTQTPLSLPVSLGDQASISCRSSQSLVHSNGYTYLHWYLQKPGQSPKLLIYKVSNRFSGVPDRFSGSASGTDFTLKISRVEAEDLGVYFCSQSTHVPWTFGGGTKLEIK
notes: it was detected with anti-mouse IgG and compared with Control mIgG; also called monoclonal antibody ESM-8; EMS-8 antibody
